The target of this data set is T1, phiC31 integrase (phiC31o, mammalian codon-optimized) (Streptomyces phage phiC31) (UniProt Q9T221).
T1 sequence: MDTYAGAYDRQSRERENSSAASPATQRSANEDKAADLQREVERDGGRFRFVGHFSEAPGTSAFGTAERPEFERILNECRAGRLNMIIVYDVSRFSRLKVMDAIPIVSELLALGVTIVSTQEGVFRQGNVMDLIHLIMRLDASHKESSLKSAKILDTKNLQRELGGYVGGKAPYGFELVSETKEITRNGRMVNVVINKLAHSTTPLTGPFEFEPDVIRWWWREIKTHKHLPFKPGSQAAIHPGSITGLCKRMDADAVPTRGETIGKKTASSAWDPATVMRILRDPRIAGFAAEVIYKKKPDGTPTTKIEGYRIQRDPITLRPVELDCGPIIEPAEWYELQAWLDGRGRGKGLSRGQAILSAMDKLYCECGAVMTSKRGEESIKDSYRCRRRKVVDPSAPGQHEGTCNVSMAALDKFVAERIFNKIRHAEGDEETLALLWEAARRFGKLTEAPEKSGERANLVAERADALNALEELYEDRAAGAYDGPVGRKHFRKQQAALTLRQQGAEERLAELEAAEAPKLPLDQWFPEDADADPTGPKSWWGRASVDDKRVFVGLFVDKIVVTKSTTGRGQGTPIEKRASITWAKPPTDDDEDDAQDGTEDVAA
Put plainly: cell_activity.

full-length phiC31 attB (pTA-attB) showed an activity (% of F0 with site-specific integration) (attB plasmid pattB-pCA-GFP into H11P3NVphi, 10/64, 0/32 without integrase mRNA) of 15.6. As to full-length phiC31 attP (pTA-attP), where the note is “H11P(NVphi), mixed background, pooled 8/102, partner attB, mouse zygote injection”, the activity (% of F0 with site-specific integration) turned out to be 7.8.

These data come from US20120124686.
